This note sets out measurements from publication PMC5449601.

Data set [1] has as its target HNRNPG N-RRM (GST fusion) (human, UniProt P38159 1-83). Kind of data set: EMSA. For orientation: Mobility shift assays separate free from complexed probe on a gel.
Data set [2] addresses HNRNPG C-RBD mutant, all three RGG to FGG (GST fusion) (human, UniProt P38159 334-391, R373F;R377F;R384F). The experiment in a line: UV cross-linking.
The target of data set [3] is HNRNPG C-RBD (GST fusion) (human, UniProt P38159 334-391). Kind of data set: EMSA.
Chain of HNRNPG C-RBD (GST fusion) (P38159 334-391): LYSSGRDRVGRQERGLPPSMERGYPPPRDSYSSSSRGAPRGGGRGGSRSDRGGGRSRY

Chain of HNRNPG C-RBD mutant, all three RGG to FGG (GST fusion) (P38159 334-391 R373F/R377F/R384F): as the sequence (P38159 334-391) above, with R40F, R44F, R51F counted along it
Chain of HNRNPG N-RRM (GST fusion) (P38159 1-83): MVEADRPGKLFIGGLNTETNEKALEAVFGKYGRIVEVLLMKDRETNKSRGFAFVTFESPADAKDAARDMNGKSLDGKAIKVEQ

B1: MALAT1 hairpin 2,515-A (structured_RNA)
RNA: AAUGUGAAGGACUUUCGUAACGGAAGUAAUUCAA
modifications: 3' biotin
Turning to B1, the binding result in data set [1] is reported as “no binding”; in data set [2], “no binding”; in data set [3], “binds”.

B2: MALAT1 hairpin 2,515-m6A (structured_RNA)
RNA: AAUGUGAAGGACUUUCGUAACGGAAGUAAUUCAA
modifications: m6A at position 11; 3' biotin
Regarding B2, the binding result in data set [1] is “no binding”; in data set [2], “no binding”; in data set [3] it was “binds”.
